From patent publication US20110268740A1

Legend:
[1] = target: M2e-VN (Influenza A virus A/VN/1203/04 (H5N1)); test: ELISA, apparent affinity, purified scFv-msFcγ2c on immobilised M2e-VN

B1: scFv-F052-msFcγ2c (Fc fusion)
chain: DADPAQAAERVMTQSPDALAVSLGERATINCKSSQSLLYSSNNKNYLAWYQKKPGQPPKLLIYWASTRESGVPDRFSGSGSGTEFTLTINSVQAEDVAVYYCQQYFMTPITFGQGTKLEIKGGSSRSSSSGGGGSGGGGQVQLQESGGALVQPGRSLRLSCRTSGLNFGDYPINWVRQAPGKGLEWVGFIKSKSYGVTTEFAASVEGRFTISRDDSRGIAYLQMNSLKTEDTAVYYCTSSSGFLYYFDYWGQGTLVTVSSASTKGPSVTSGQAGRKLEPRVPITQNPCPPLKECPPCAAPDLLGGPSVFIFPPKIKDVLMISLSPMVTCVVVDVSEDDPDVQISWFVNNVEVHTAQTQTHREDYNSTLRVVSALPIQHQDWMSGKEFKCKVNNRALPSPIEKTISKPRGPVRAPQVYVLPPPAEEMTKKEFSLTCMITGFLPAEIAVDWTSNGRTEQNYKNTATVLDSDGSYFMYSKLRVQKSTWERGSLFACSVVHEGLHNHLTTKTISRSLGK
Work on B1 yielded an EC50 [1] of 0.0459 nM.

In the case of SLLTEVETPTRNEWECRCSDSSD (modifications not checked) [M2e-VN], the EC50 (scFv-D005-msFcγ2c) is reported as 32.5 µM, the EC50 (scFv-E040-msFcγ2c) is reported as 43.2 µM and the EC50 (scFv-F052-msFcγ2c) is reported as 50.8 µM.

B2: scFv-D005-msFcγ2c (Fc fusion)
chain: DADPAQAAELVMTQSPDSLAVSLGERATINCKSSQSVLYTSNNKNYLGWYQQKPGQPPNLLIYWASTRESGVPDRFSGSGSGTDFTLTINSVQAEDVAVYYCQQYFMTPITFGQGTRLEIKGGSSRSSSSGGGGSGGGGEVQLVESGGALVQPGRSLRLSCRTSGLNFGDYPINWVRQAPGKGLEWVGFIKSKSYGVTTEFAASVEGRFTISRDDSRGIAYLQMNSLKTEDTAVYYCTSSSGFLYYFDYWGQGTLVTVSSASTKGPSVTSGQAGRKLEPRVPITQNPCPPLKECPPCAAPDLLGGPSVFIFPPKIKDVLMISLSPMVTCVVVDVSEDDPDVQISWFVNNVEVHTAQTQTHREDYNSTLRVVSALPIQHQDWMSGKEFKCKVNNRALPSPIEKTISKPRGPVRAPQVYVLPPPAEEMTKKEFSLTCMITGFLPAEIAVDWTSNGRTEQNYKNTATVLDSDGSYFMYSKLRVQKSTWERGSLFACSVVHEGLHNHLTTKTISRSLGK
Work on B2 yielded an EC50 [1] of 0.0515 nM.

B3: scFv-E040-msFcγ2c (Fc fusion)
chain: DADPAQAAELVMTQSPDSLAVSLGERATINCKSSQSVLYSSNNENYLAWYQQKPGQPPKLLIYWASTRESGVPDRFSGSGSGTDFTLTINSVQAEDVAVYYCQQYFMTPITFGQGTRLEIKGGSSRSSSSGGGGSGGGGEVQLLESGGALVQPGRSLRLSCRTSGLNFGDYPINWVRQAPGKGLEWVGFIKSKSYGVTTEFAASVEGRFTISRDDSRGIAYLQMNSLKTEDTAVYYCTSSSGFLYYFDYWGQGTLVTVSSASTKGPSVTSGQAGRKLEPRVPITQNPCPPLKECPPCAAPDLLGGPSVFIFPPKIKDVLMISLSPMVTCVVVDVSEDDPDVQISWFVNNVEVHTAQTQTHREDYNSTLRVVSALPIQHQDWMSGKEFKCKVNNRALPSPIEKTISKPRGPVRAPQVYVLPPPAEEMTKKEFSLTCMITGFLPAEIAVDWTSNGRTEQNYKNTATVLDSDGSYFMYSKLRVQKSTWERGSLFACSVVHEGLHNHLTTKTISRSLGK
B3 showed an EC50 [1] of 0.0464 nM.
